Reference: the DeepSol protein solubility set

Experiment: soluble on expression in E. coli; label from the status in PepcDB or PDB records

Sequence | soluble on expression in E. coli
MSDSAVVAAAVEPKVPKAKAAKAAKPTKVAKAKAPVAHPPYINMIKEAIKQLKDRKGASKQAILKFISQNYKLGDNVIQINAHLRQALKRGVTSKALVQAAGSGANGRFRVPEKAAAAKKPAAAKKPAAAKKPAAAKKATGEKKAKKPAAAKPKKAATGDKKVKKAKSPKKVAKPAAKKVAKSPAKKAAPKKIAKPAAKKAAKPAAKA | soluble
MANTITADEIREHFSQAMSAMYQQEVPQYGTLLELVADVNLAVLENNPKLHEQLANADELARLNVERHGAIRVGTAEELSTLRRIFAIMGMYPVSYYDLSQAGVPVHSTAFRPIDEASLSRNPFRMFTSLLRLELIENAALRQRAAEILSQRDIFTSRCRQLLDEYDEQGGFSAAQAEEFVRETLETFRWHRQATVDEETYRSLHREHRLIADVVCFPGCHINHLTPRTLDIDRVQAMMPECGITPKILIEGPPRREVPILLRQTSFKALEEQVLFVDEKQGTHTARFGEIEQRGVALTPKGRRLYDELLHKAGTGKDNFTHQLHLREVFNAFPDSEFLLRQQGLAWFRYRLTPSGEAHRQAIHPGDDPQPLIERGWVIAQPITYEDFLPVSAAGIFQSNLGDETLARSHGNASRDAFEQALGCAVRDEFSLYQEAEERSKRRCGLLLEHHHHHH | not soluble
MTECLQTKKSNCKNCYKCIRHCPVKSLKFTDGQAHIVRDECVLCGECYVVCPQNAKQIRSDVEKAKQLVLKYDVYASIAPSFVAWFHNKSIHDMEQALIKLGFKGADETAKGAYIVKKQYEKMIEEKKSKIIISSCCHTVNTLIQRHYTGAIQYLADVVSPMLAHAQMLKKEHKGAKVVFIGPCISKKDEAEKYKGYVELVLTFDELDEWLKSENITIESNRGSSKEGRTRSFPVSGGIISSMDKDLGYHYMVVDGMENCINALENIERGEIDNCFIEMSACRGSCINGPPARRKSNNIVGAILAVNKNTGAKDFSVPMPEPEKLKKEFRFEGVHKIMPGGTAIEEILKKMGKTSIEHELNCGSCGYDTCRDKAVAVLNGKADLTMCLPYLKEKAESFSDAIIKNTPNGVIVLNEDLEIQQINNSAKRILNLSPSTDLLGSPVSRILDPIDYILALREGKNCYYKRKYFAEYKKYVDETIIYDKEYHVIIIIMRDVTEEEKIKALKNKQSEAAIEIADKVVEKQMRVVQEIALLLGETAAETKIALTKLKETMEDE | not soluble
MFFDDTYLDYKARVSYSLFCAKDFNETAAFIKANRILMTSTELAAYMLKPENYKYAIIARIKNSMVGIVLFTDFESEVFINHLYVSPIHRFKGIGSNLLKELKAFMGQRTVSYIDTSNNYMPWMEVLDVSKKAAVINQLGSFYKCSK | not soluble
MGSDKIHHHHHHMIDLRSDTVTKPTEEMRKAMAQAEVGDDVYGEDPTINELERLAAETFGKEAALFVPSGTMGNQVSIMAHTQRGDEVILEADSHIFWYEVGAMAVLSGVMPHPVPGKNGAMDPDDVRKAIRPRNIHFPRTSLIAIENTHNRSGGRVVPLENIKEICTIAKEHGINVHIDGARIFNASIASGVPVKEYAGYADSVMFCLSKGLCAPVGSVVVGDRDFIERARKARKMLGGGMRQAGVLAAAGIIALTKMVDRLKEDHENARFLALKLKEIGYSVNPEDVKTNMVILRTDNLKVNAHGFIEALRNSGVLANAVSDTEIRLVTHKDVSRNDIEEALNIFEKLFRKFS | soluble
MGSDKIHHHHHHMGFVSTTFDVLIIGAGPSGASAAVHAARTGLQTLLIDASSFPRDKTCGDGLTPRAIHQLELLGVADQVTGDYFNKGLKLHGFGGSVEAPWPETYFTNKGSAMSRMEFDDLLFRLAKSHEEVTTWENASAQDPILRGNFLEGVVINHAGQEKTVKAKHVIIADGVRSPFGKKLGRQWQRDEVYGIAARAYCETPLSDEPWIHSHVELRDEDGVVQPGYGWIFPLGNGTVNLGCGALSTDTRPAKINTKKLLSFYAGQRRKAWQLGPEHDVASALLPMGGAVSNVAGANWMLIGDSAACVNPLNGEGIDYGLETAAMAVDTLVENPKRDLTLVWPHRLRDAYGETFMLARTAARLLTYPQFLPMAGPLAFRGPLQKAIMPAAARLMGNLITEEDKDLLARGWQAAGSAISWARKGSPLWDSTSSLV | not soluble
MSRFIPIELHHASRLLNHGPTVLITSFDEQSQRRNIMAAAWSMPVEFEPPRVAIVVDKSTWTRELIEHNGKFGIVIPGVAATNWTWAVGSVSGRDEDKFNCYGIPVVRGPVFGLPLVEEKCLAWMECRLLPATSAQEEYDTLFGEVVSAAADARVFVEGRWQFDDDKLNTLHHLGAGTFVTSGKRVTAG | soluble
GMEAKLSSIEIPVGQDELSGTLLTPTGMPGVLFVHGWGGSQHHSLVRAREAVGLGCICMTFDLRGHEGYASMRQSVTRAQNLDDIKAAYDQLASLPYVDAHSIAVVGLSYGGYLSALLTRERPVEWLALRSPALYKDAHWDQPKVSLNADPDLMDYRRRALAPGDNLALAACAQYKGDVLLVEAENDVIVPHPVMRNYADAFTNARSLTSRVIAGADHALSVKEHQQEYTRALIDWLTEMVVGRRIALAKEVVAARKQLLKEQQGDAVSLPGQGSREFRGDIRAVEKTSA | soluble
MVNTLAFEYSYKALIVYCRINNNNFSLVKLKSNLNFSVPKIFNDFVIKNNIDLNQIELIINSCGPGSFTGLRISLSFVKGLALGLSIPFVNISTLDVFANLVENNPSAVVLTFTAGKYFLGNYKNCKLIGKILCFSKKDLFEYLNQIDPNSVLIGNNLEDVCKECNYKFKIIENLSSFGKILTELGVAKYLKNRKGDDILSGPLYIRQSDAEVNFHSLEHHHHHH | not soluble
MGSDKIHHHHHHMISDHDGEFGSQNVRAALPSLMALRCFEAAARHEHFSRAADELHLTHGAVSRAVRLLEDDLGVALFERRSRRVFLTDAGRKLAQAVHDGLHLMRQAAHELRTDAARAQRWVLSCEPTLLMRWLIPRWPDFQATYPRVDIHLAAAGGPFSFDHGIDIAIRRNDFAWPAGYHAERLFTERVGPVCRPDRVDTWFSGGRDDRALKRGAPRLHTRTRPDAWKEWAAAAHQPAGSGRGQMFDHFYFSLQAAVAGLGVAIGPWHLVRDDLESEVLVAPMGFVQDGSHYCLLTPEPVKDGSAQSALLDWLRTMA | not soluble
PLPEACADMLWSNLGLLAAEQILPVLHNWARALKTDGLLFFTCFGRDTLAELKCRLKENGIESRSALFPDMHDLGDMLAENGFYDPVTDTAKLVLDYKKAETFWADMDTLGVWRAMAWNDENAARSCVGTIFEREGGLGITLETVYGHAVK | not soluble
MASAQPLTALPAIPLPGDAGPVDELAAVIALLQTQPADSTGAATDLAARASALVGAPVTVLDERSGVLAGDPTRVAGQVAAPDGSVALGWGPAADDAERWRPLLTQACVWLSMIRRLDGAPAVEPESVAVREVVQQLLSVRDVDQVLTSIAERTLRLLDADICGVMLREGERVCMRACVGNRVAQTARLRMRRGQGLAGLVFDIGRPAKVDTYLEDRTISPDFMSLAEQEETRSALAVPLRLHGELIGVLEVWRRRPSTFTEHDEHRMVVLADIATVAIDNARLHDEQAASTVEAERARDELQQQVAMLNGSSRLQQKLLTTVIEGGGLPAVVHAVAIELGCEVGVFGPDGAMIATHTPGSTPASLPARLPVRARPATPGRWVRPVYADGDQVGQVVLIQGEASAELMDAVAGQVAMACSLALLRERAASRARAQAVDQVLWDLLQGPVQHRVAARSRAQQLGISLLGSLRVLHGQIENVEELAAEQGWDTSHTDKVRRGVLRAVRGVDEARRLPLTGMRGDLLVAVAADLDRASVKDLAAATCAAIHAEWPGLRLTWGVSRERANPMELPNALSEAETALAAARRLGGRNALLYEELGIVRLLLGSGNDPDLQTFIEEVTGPLIAYDRDNDGALIRTLRAFFDADCSQRVAAERLFVHHKTLRYRLERIRQLTGLDLSRHEDRMRADFALRLLQVNQTSDAIGD | not soluble
MGSDKIHHHHHHMVETLAGLFDFEMDPQSGVALTRQLRDQLRRAIAAGSLASGRRLPSSRALALHLRVSRNTVCAAIEQLAMEGYLDVSRGRRPVVAPMPSAGLVAIGSDRPVSDGRSGMSQWAQRIDRSDWPFISEGRPTPFAPCVADARAFPHAIWGRCLRTATRYAVARTSTACNRPGLRRALLHHLVEYRGVNADAHQVFLMPTAQAAIALVARVLLDPGDLAWVESPGYGGARAAFEAAGATVQGIALDQSGMAFETSTDTPRLIFVTPAHQHPTGLLMPPARRQALLRFAARVGARIIEDDYDSEFHYEGRPVAALQGADDADSVFYVGTFSKSLHADIRVGYVVVPGHFVDVFAKAQRHTGQIVGATLQDALAEFIDDGHYAAHIRKTTRLYHARRDYLCDALKAVGSELTVSPPDGGMQVVARLGPLRDDREICRRLAEAGVTARPLSPHYCAQTGAQGLFLGFAAWNECEIDAGVRILARVIREPEPSK | not soluble
MGSDKIHHHHHHMKLPTNSILISLKIGIVSDGQYGERAFEQIRRRFPTEWILLPYPSSPVVDEIELTIPPCDLYISYLRHPDIAMELIRTGIPALLGINLGPGFIAQAHEFNPAVIGPETMCSVLPNTKFCQVNEYAKVFGRPVFYLVMDGDRIVWCKTIRGSPCGSTDAAASEISGQILDQEALSRFALSICHNCRAPRFGKTCDKEKAGIIHLEELMRALKGVNPKKWEELIQVLEKIGCSFPNE | not soluble
MEDKTLGLLLDVVGELFSDEISIAVSNTKEYIYYRPSKRIDLKISAGDPIKEGTIAHKAMVTNQKTSEFMNRDVFGIPYHGMAVPFSNNGKLEGCVTAIYPALTDGKSVVTLKTTDGWIPVPFSKVMYLEAKDKKTYVNAEELTGTHKYSLQEFEYLLPKDSFIRCHRSFIVNVNHIKAIYPDTHSTFLLSMDNGERVPVSQSYASYFRKLLGF | soluble
MESVPSPRRVVLTPGARRALDAAGRLFYERGIHAVGVDLIAAEAGVTKKTLYDRFGSKEQIVVEYLADRDERWRAFLAGHLDTAGDSPGRRLTAIFDASREWTAENSAKGCSMVNAHAEISDPAHPAYAVIVGQKRWMLDLFTGVCRDASVRDPETLARTVMLLHEGALVSHGLQVFPEAVRLASDQASALLAAAAGPAR | not soluble
GPGSMFNVVLVEPEIPPNTGNVIRLCANTGARLHLIEPLGFPLDDAKMRRAGLDYHEYAQMRVHRDWDAFVAAEAPDPARMFAFTTRGSGRFHDRAFEPGDWFVFGAETRGLAPALVDRFAPEQRVRLPMRPGNRSLNLSNTVAVVVFEAWRQAGFEGGA | soluble
MSLDDRRLIAEVEARRADLVALTQDLVRIPTLNPPGRNYRALCDMLAARLAPQFEVELVRAHGAPGDSETYPRWNLIARRQGARDGDCVHFNSHHDVVEVGHGWTRDPFGAEVEGDRLYGRGACDMKGGLAASVIAAEAFLAVCPDFAGSIEISATADEESGGFGGVAYLARQGRFAHVQHVLIPEPLHKDRICLGHRGVWWAEVETQGRIAHGSMPFLGDSAIRHMGALLAEIEERLYPLLATRTTAMPVTPEGARQSTLNINSIHGGEPEPEPGYTGLPAPCVADRCRIVIDRRFLIEEDLDEVKAELRALAERLAEARPGFAFEIRDLFEVRPTLTDRDAPVVRSTAAAIERVLARQAEYVVSPGTYDQKHIDRIGKLKNCIAYGPGLLHLAHQPDEWVGIADMVDSAKVMALVLADLLAPEEGHHHHHH | soluble
